Biological target: csk21_human CSNK2A1 (UniProt P68400)
Sequence (P68400 whole entry, looked up): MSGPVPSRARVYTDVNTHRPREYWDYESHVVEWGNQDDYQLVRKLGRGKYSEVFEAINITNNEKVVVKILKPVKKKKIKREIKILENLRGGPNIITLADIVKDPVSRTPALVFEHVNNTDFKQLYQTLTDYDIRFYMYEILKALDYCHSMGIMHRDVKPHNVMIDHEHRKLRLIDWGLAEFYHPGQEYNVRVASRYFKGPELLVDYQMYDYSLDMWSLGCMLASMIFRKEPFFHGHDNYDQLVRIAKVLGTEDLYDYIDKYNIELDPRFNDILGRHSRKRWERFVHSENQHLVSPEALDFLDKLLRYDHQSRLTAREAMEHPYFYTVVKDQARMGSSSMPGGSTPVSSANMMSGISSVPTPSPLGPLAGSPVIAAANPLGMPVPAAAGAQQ

Chain of Casein kinase II subunit beta (Homo sapiens), P67870 L39R (P67870 whole entry L39R): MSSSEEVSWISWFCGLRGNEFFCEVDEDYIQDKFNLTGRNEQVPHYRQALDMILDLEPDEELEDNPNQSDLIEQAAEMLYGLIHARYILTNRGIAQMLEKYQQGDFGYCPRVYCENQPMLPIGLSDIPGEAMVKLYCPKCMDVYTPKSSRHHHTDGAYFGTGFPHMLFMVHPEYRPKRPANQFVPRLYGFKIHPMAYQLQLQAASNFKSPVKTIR

effect of a mutation on the interaction: decreasing interaction strength
Substance: Casein kinase II subunit beta (Homo sapiens), P67870 L39R

— IntAct's records for PubMed 36833176
